The nature of the data set: soluble on expression in E. coli; label from the status in PepcDB or PDB records.
For the sequence “MGSDKIHHHHHHMVFPISLEGYHLEEVVIIGGGVAGLSCLNALLDQGISALLIEGSTIGTPKMCGEFLAPIAAQQLQLWDVDPLIPIPHAAFYAGIRQLDIHFTKPSAAISRSDVELKLAARARRLGGRIRENTYLEYTTPATERTPFYFKLSTGEIIEAKSAFFATGKLSNNKDNKKIALPYFGFKLHFSHTENDHSLKMFSLDKAYLGIVPITETISNCACLAKREAVDAATSPEEHFRHLTQSHPVLKKIFTPLDLSAIDILSGRAPAFTQKKPPNWPNSYWIGDTLASLYPAIGSGFAHSVDSAIQAVQSYLKQQPKLYRINYSKSIKTKVLLGNVFNAALLQPKVGQLALPLLKRSPKLVNLVLKKLDYV”, the “soluble on expression in E. coli” value is “not soluble”.

Consider “MNKLITVIRDFSYSVYNWCYETVIGENTRKYKMTWKVPKESLKIIVNKNADARMQRELENRTAKDEANALTSRRRVFGSYALIGTQRAEFIQFRQIKHIDITNASLDFLYNLKQLKHDNLANFYGIQLNDDLNTMTILHALVERGTLEEFCLDRDFGMDETFKSAFMRDILKGLQYLHLSPVAYHGHLHAATCLIDINWVLKIALYGVTNFVCDNFDAENITMPDRSDYTISYAQYVCFPPEHIREYDATGKLPTRFVRGSKQGDIYCVGMIFYMMIEREDPYRLIHSVERPGSGLMMEILDHNLMPFISNNETQEDTLLDKCKECWNRDPEKRPTIENLRNAIAICYADSKGNLIDQMIRMNEKYADELETLVAARSADLALAQMQTMRLLNEMLPASIAKDLKNGVIAPARSYASATVMFVQICDFIVILKRRPPKEVIGFLNDIFDQFDTVIKRHDVETTGETYMVASGVPNENEGRHVFEVAEMSLEIRAISLSYTLENDKNYKLRVRIGFHAGPIAAGVIGIKNPRYCLFGDTVNFASRMQSNCPPLQIQTSEITARMLLATHEYKLVKRGIVHVKGKGEVNCYWLNEHIHKDEEIEESGTISHPLES”, for which the “soluble on expression in E. coli” value is “not soluble”.

With “MSLHRLASLPGGWTPAMEGVIIVEQTPAPLIFLTAADTDIQAIARVWPRLPGDFPDLRVCNLLNLQQSFSLDDYGDRVLGQAEVIVVRLLGGKSYWPYGLEVLGELTVTKPDLKLFVLPGDDRPDPSLMNQSTVPLTAVHCLWQYFAEGGTDNIRHGLMWLGDYGFGRNYRPPAPQMVPKVGIYRPEGHHHHHH”, the “soluble on expression in E. coli” value was “soluble”.

Take “KLEEEPYLKGTVNTVIYHNDTNLYTVLKVKVTETSEAIEDKAVSVTGYFPALQEEETYTFYGKIVTHPKFGLQFQAEHFKKEIPTTKEGIIQYLSSDLFEGIGKKTAEEIVKKLGDSAINKILADASVLYDVPRLSKKKADTLAGALQRHQGLEQIMISLNQFGFGPQLSMKIYQAYESETLEKIQENPYQLVKDVEGIGFGKADELGSRMGLSGNHPERVKAAILYTLETTCLSEGHTYIETEQLIIDTQSLLNQSAREGQRITEMDAANAIIALGENKDIVIEDGRCYFPSLFYAEQNVAKRVKHIASQTEYENQFPESEFLLALGELEERMDVQYAPSQKEAIQKALSSPMLLLTGGPGTGKTTVIRGIVELYGELHGVSLDPSAYKKDEAFPIVLAAPTGRAAKRMSESTGLPAVTIHRLLGWNGAEGFTHTEDQPIEGKLLIIDEASMLDIWLANHLFKAIPDHIQIIIVGDEDQLPSVGPGQVLRDLLASQVIPTVRLTDIYRQAEGSSIVELAHQMKNGLLPNNLTAPTKDRSFIRCGGSQIKEVVEKVVANALKKGYTAKDIQVLAPMYRGKAGINELNVMLQDILNPPKEKRRELKFGDVVYRTGDKILQLVNQPENNVFNGDIGEITSIFYAKENTEKEDMAVVSFDGNEMTFTKKDFNQFTHAYCCSIHKSQGSEFPIVVLPVVKGYYRMLRRNLLYTAITRAKKFLILCGEEEALEWGVKNNDATVRQTSLKNRLSVQVEEMDAELEALQKELPFSVHDANIGMEGITPFDFM”: the “soluble on expression in E. coli” value is “not soluble”.

As for “MSRSSLVDPSFELSDPCPDIHALFIQFDARFFGGSLACCEVKWSPRMYACAGICSYEIRGGRGGLCSIRLSKPLLTLRPRSDLVETLLHEMIHAYLFVKERNRDRDGHGPQFQAHMHRINQAGGTNITIYHSFHDEVRLYKQHWWRCSGPCRDRRPFFGYVKRSCNRAPGPNDRWWSQHQQSCGGNFLKVKEPEGYGQGKGSKRTNDKNKSGGPALKKTITPPRVTLDDFFKKDGKNSSDNSTSKSPTKPSTSLFTGSGQKLGGSSSTSSLLNSYPKATQNSGGNRLGGTSGGVSRLLPPVNFTSPSSAPVAEQVIDLGDSDDDDFQDMDDDALEISFVASDNSVICPSCNTEVMENLIHGHLDYCLG”, the “soluble on expression in E. coli” value is “not soluble”.

Consider “MGSDKIHHHHHHMAAEIIAVTQQKGGVGKSTIAMHLGAAFHEKGRRVLVIDADGQNTLVHWSSSSADSESGIPFPVVNLAEAGSQIHREIKKFINDYDIIIVDCPPSITEKVSGVVLLAATIAVIPTSSSPADYWSSVGLVKLIQQAQVMNEDLRAVFLLNKTEEKRMLTRELKRALEELGFPLLKTQIPTREAYKQAMALGQTVLQMNDRGAKLAAAEIRACADEIVAMLP”, for which the “soluble on expression in E. coli” value was “not soluble”.

Consider “MTGAVCPGSFDPVTLGHVDIFERAAAQFDEVVVAILVNPAKTGMFDLDERIAMVKESTTHLPNLRVQVGHGLVVDFVRSCGMTAIVKGLRTGTDFEYELQMAQMNKHIAGVDTFFVATAPRYSFVSSSLAKEVAMLGGDVSELLPEPVNRRLRDRLN”, for which the “soluble on expression in E. coli” value is reported as “soluble”.

Turning to “MLTEEKVLAALNRVKDRDLNKSIVETGGIRELKISGANVSVKVALAQTGTREQMEIQQEIVNVLKGEGAESVGLRFDQLDETEIEKLGGLPKQEFHGPPLLHPNTSTTFIAVTSGKGGVGKSTVSVNLATTLARLGKKVGIIDADIYGFSVPDMMGIEERPKVVGEQIFPVERFGVKVISMGFFVEDNAPVIWRGPMLGKMLNNFFAEVEWGDLDYLILDLPPGTGDVALDIHTMLPHSKEILVTTPHATAAFVAARAGAMALKTHHEIIGVVENMAYFESKITGEKEYVFGQGGGERLAEELKTEVLGRIPLGQPEIDEDDFAPSVYGATHPIGEIYTAIAKRVIDKTTLEHHHHHH”, the “soluble on expression in E. coli” value was “soluble”.

Consider “DQVLKGAALVGHNVLVPSAQVAIDATGSAKGVVAATSAGFVNFEITDANGTFVKQLSVPASAAGEVSFAWDGTDANGNRMAAGKYGITATQTDTAGAKSKLATYVDAPVDSVTIGSDGLYLNLTGLGTSPLANVLRVS”, for which the “soluble on expression in E. coli” value was “soluble”.

“MGSDKIHHHHHHMEIFGKTFREGRFVLKEKNFTVEFAVEKIHLGWKISGRVKGSPGRLEVLRTKAPEKVLVNNWQSWGPCRVVDAFSFKPPEIDPNWRYTASVVPDVLERNLQSDYFVAEEGKVYGFLSSKIAHPFFAVEDGELVAYLEYFDVEFDDFVPLEPLVVLEDPNTPLLLEKYAELVGMENNARVPKHTPTGWCSWYHYFLDLTWEETLKNLKLAKNFPFEVFQIDDAYEKDIGDWLVTRGDFPSVEEMAKVIAENGFIPGIWTAPFSVSETSDVFNEHPDWVVKENGEPKMAYRNWNKKIYALDLSKDEVLNWLFDLFSSLRKMGYRYFKIDFLFAGAVPGERKKNITPIQAFRKGIETIRKAVGEDSFILGCGSPLLPAVGCVDGMRIGPDTAPFWGEHIEDNGAPAARWALRNAITRYFMHDRFWLNDPDCLILREEKTDLTQKEKELYSYTCGVLDNMIIESDDLSLVRDHGKKVLKETLELLGGRPRVQNIMSEDLRYEIVSSGTLSGNVKIVVDLNSREYHLEKEGKSSLKKRVVKREDGRNFYFYEEGERE”: the “soluble on expression in E. coli” value is listed as “soluble”.

As for “MITVKNIEGSETYVLRQKILRPNQTLADCKYPSDYETDTFHLGAFINDQLISIASFSKEMHPDLQAGMHYRLRGMATLPEFRNNHAGSSLIQKAEQILQERQANMLWCNGRITVADYYKRLGFQEHGEIFEIEPIGLHKVLYKRI”, the “soluble on expression in E. coli” value is listed as “not soluble”.

On to “MGSDKIHHHHHHMPECSKAWAVREEPELLTDRRHTDDGGEFVSQPRIIEPAIRTLIDTPLRVGESPTWDERTGDLWFVDILAPAIFCLSPSGKLQRFDMPAQIGCLGLCQSNLIVAALKTGVHLLNPQNGELELLCDPDEGRADSRLNDGKVGPDGHFWVGTRDEADVPTGNARLYRVSSSGHVERFIDGDMLTSNGLAWSPDETRMYHSDSSGLLLQVFDFDVQTGRLGPAKRLHDFQPDEGRPDGAATDSEGCYWSAGVQAGRLNRFTPDGELFEIYKMPFKGPTMPCFGGPELKTLYVTSLVTDTNGVATSGTLVAFDAPVAGAPIHKFPL”, for which the “soluble on expression in E. coli” value is “not soluble”.

On to “MGSDKIHHHHHHVAISIAGGVRPGKVIEIERRLYKQLIVGKHKANAMPDELSAELEESANKLDIERKALKMRLEKQAKEKSVYVEVSALLTHTVNNAIEHQLAHPQMILEASAISENQILLLDLLLHPDLNINRLRPIIESINWLSRDLINLINSPASRHRRPKHGDVQVTDIKLVLNYIGIEHLRLLIPYFCLRNWLPSGNANLLWITRKLWRYSMVSAIAAQTLAELHNEEPGLAYSCALMYQFSTSIILSQSGRIFDNTWGTWLREASHSREKQVYDAIMATDFPAEEVLGQVLLHSHRLNWQLLSLLKFDDSPITQVLKELDHDYHFTELSADAAIVAKASCYAKVLLLEEQQQIDPQEKRIMFDYYQFSAQELIRLKGQNFRKLDLL”, for which the “soluble on expression in E. coli” value is on record as “not soluble”.

“MGSDKIHHHHHHMKETSWDDYKIAYQVALDGSLSRAGVSLRINHATVLRRINQLEQALEVKLFIRHQRGYKLTDAGCVLMDEMPEMLAKFSSLENKLQNVEGDISGELRITTVSSFSPVITPALKAFRAKYPKIRLKLISTDDIVPLDSGAAHVSLRAGPSPVGVDLVVKNLIKLETAYHATQDYIDEFGQPKTINEFNDHQWVLPTPEKYRIPFVNYIVDKIDKNRIVFQSNNFSDIHDAVIAGMGIGPLSDHQASLNPSMVKIDLDIPKNGESIWFVYHKDLKHSARIQSFYHFLKAALSDIEQEHLRISDSKTNKD”: the “soluble on expression in E. coli” value is recorded as “not soluble”.

For “MGSDKIHHHHHHMIHFSINKNLFLQALNTTKRAISSKNAIPILSTVKIDVTNEGITLIGSNGQISIENFISQKNEDAGLLITSLGSILLEASFFINVVSSLPDVTLDFKEIEQNQIVLTSGKSEITLKGKDSEQYPRIQEISASTPLILETKLLKKIINETAFAASTQESRPILTGVHFVLSQHKELKTVATDSHRLSQKKLTLEKNSDDFDVVIPSRSLREFSAVFTDDIETVEIFFANNQILFRSENISFYTRLLEGNYPDTDRLIPTDFNTTITFNVVNLRQSMERARLLSSATQNGTVKLEIKDGVVSAHVHSPEVGKVNEEIDTDQVTGEDLTISFNPTYLIDSLKALNSEKVTISFISAVRPFTLVPADTDEDFMQLITPVRTN”, the “soluble on expression in E. coli” value is “soluble”.

With “MGSDKIHHHHHHMKLIDLHVHSYHSDGVLAPAVLVAMAAERGLASLAIADHDAVDGIDEAVAEGVRLGVDVIPAVELSVELGRFSDLHILGYCIDHHDPAFRDKLAGFRSARDNRGKAILEKINRRLLHSRKAPLSYDEVLSMAGGAVGRPHIGRVLVDNGYARDMEDAFRRYLIPCNVPKRYMPAGEAIAEIRRIGGVSVLAHPPTITDDRRRLRQVVEQLAQLGLDGLEVFNNLCFKDDMLYLERLAEEFGLLMTGGSDFHGFEDDVELGRGRGGLAVAHSLAEKVKELAAQRKHSHA”, the “soluble on expression in E. coli” value is on record as “not soluble”.

“MGSDKIHHHHHHMHIRKYDHDYSRRFFMEQAAKGIATAGVLGPLWPMIANSADITKAYPDELMSIDAWSKGKIKTGDFITAENVDIVKDLLDPVAYQEVKTMGRRIRIVPTTKDVTRMFPHEYLEATLRNQGKAKFDAGGNIVSPDGKPWIGGNPFPDAKTGVEVAANLTLCWGRHDNSIYAIRDWEIAPDGSQSYQYDFAWVEENSVARAQAKSFPGGEDKLRYQAVFFTSPVDVKGTSYLSTWYYDQRKFPDLSGYLPAFKRVRKFPTNQRFEPLVAGVNFYLSDAWASGDPMLTWGNYKIVGRGPMLGAQSQTWYGDHPNWERPVHGGPKGITFFDTNMELCPDVVVFEAEPVGYPRAPVSKKRVWVDTRNMMFVAYVTYDRRGDLFKSFEPQFSLYEKGDKKLMDGSHTAWSWTAVTCHNIQDGRMTRFLQTKSIAGGVSQGYNVEGTFDKYLTEQALQRLGT”: the “soluble on expression in E. coli” value is “not soluble”.

These data come from the DeepSol protein solubility set.
